Assay results: patent publication JP2006306895A (dated 2006)
Numbering of substitutions follows the chain as printed. One block for each binder: values may come before it.

Biological target: T1, ヒトPTHrP(1-34) (human)
T1 construct: Synthetic peptide, coated on ELISA plates (Peptide Institute) or mixed with antibody in the cAMP neutralisation assay; also called human parathyroid hormone related protein (1-34)
Assay: ELISA, plate-coated human PTHrP(1-34)

- binding result: binds
B1: ヒト型化#23-57-137-1抗体 L鎖バージョン"j" (antibody, V domains shown)
VH: QVQLVESGGGVVQPGRSLRLSCAASGFTFSSYGMSWVRQAPGKGLEWVATISSGGSYTYYPDSVKGRFTISRDNSKNTLYLQMNSLRAEDTAVYYCARQTTMTYFAYWGQGTLVTVSS
VL: QLVLTQSPSASASLGASVKLTCTLSSQHSTYTIEWYQQQPEKGPKYLMDLKQDGSHSTGDGIPDRFSGSSSGAERYLTISSLQSEDEADYYCGVGDTIKEQFVYVFGGGTKLTVLG
notes: Humanized H chain version a with human Cγ1; human lambda L chain C region; also called hMBC1HcDNA/pCOS1 + hMBC1Ljλ/pCOS1; version j

- binding result: binds
B2: ヒト型化#23-57-137-1抗体 L鎖バージョン"l" (antibody, V domains shown)
VH: B1 VH
VL: B1 VL with L47V
notes: Humanized H chain version a with human Cγ1; human lambda L chain C region; also called hMBC1HcDNA/pCOS1 + hMBC1Llλ/pCOS1; version l

- binding result: binds
B3: ヒト型化#23-57-137-1抗体 L鎖バージョン"q" (antibody, V domains shown)
VH: B1 VH
VL: B1 VL with Y91I
notes: Humanized H chain version a with human Cγ1; human lambda L chain C region; also called ヒト型化抗体バージョンq; hMBC1HcDNA/pCOS1 + hMBC1Lqλ/pCOS1

- binding result: binds
B4: ヒト型化#23-57-137-1抗体 L鎖バージョン"o" (antibody, V domains shown)
VH: B1 VH
VL: B1 VL with K45R, L47V
notes: Humanized H chain version a with human Cγ1; human lambda L chain C region; also called hMBC1HcDNA/pCOS1 + hMBC1Loλ/pCOS1; version o

- binding result: binds
B5: ヒト型化#23-57-137-1抗体 L鎖バージョン"t" (antibody, V domains shown)
VH: B1 VH
VL: B1 VL with K45R, L47V, Y91I
notes: Humanized H chain version a with human Cγ1; human lambda L chain C region; also called hMBC1HcDNA/pCOS1 + hMBC1Ltλ/pCOS1; version t

- binding result: binds
B6: ヒト型化H鎖バージョン"a"とキメラL鎖を組み合わせた抗体 (antibody, V domains shown)
VH: B1 VH
VL: QLVLTQSSSASFSLGASAKLTCTLSSQHSTYTIEWYQQQPLKPPKYVMDLKQDGSHSTGDGIPDRFSGSSSGADRYLSISNIQPEDEAMYICGVGDTIKEQFVYVFGGGTKVTVLG
notes: Human Cγ1 H chain C region; also called humanized H chain version a + chimeric L chain

- binding result: binds
B7: ヒト型化#23-57-137-1抗体 L鎖バージョン"m" (antibody, V domains shown)
VH: B1 VH
VL: B1 VL with K45R
notes: Humanized H chain version a with human Cγ1; human lambda L chain C region; also called hMBC1HcDNA/pCOS1 + hMBC1Lmλ/pCOS1; version m
